Measured values taken from article PMC9482650, “Quantitative fragmentomics allow affinity mapping of interactomes” (Nature Communications, 2022).

T1: APBA1_2, Q02410
T1 sequence (Q02410 742-832, limits assumed, looked up): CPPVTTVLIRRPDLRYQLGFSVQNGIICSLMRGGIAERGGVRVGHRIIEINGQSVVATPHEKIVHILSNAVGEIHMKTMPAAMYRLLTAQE

T2: CARD11, Q9BXL7
T2 sequence (Q9BXL7 662-765, limits assumed, looked up): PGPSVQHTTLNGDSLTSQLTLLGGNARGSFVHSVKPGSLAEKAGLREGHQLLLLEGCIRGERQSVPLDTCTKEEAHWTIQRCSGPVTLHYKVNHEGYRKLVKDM

T3: LIN7A, O14910
T3 sequence (O14910 103-200, limits assumed, looked up): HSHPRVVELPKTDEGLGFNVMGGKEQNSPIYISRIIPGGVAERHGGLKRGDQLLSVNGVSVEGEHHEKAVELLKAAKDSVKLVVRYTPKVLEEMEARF

T4: LNX2_3, Q8N448
T4 sequence (Q8N448 463-564, limits assumed, looked up): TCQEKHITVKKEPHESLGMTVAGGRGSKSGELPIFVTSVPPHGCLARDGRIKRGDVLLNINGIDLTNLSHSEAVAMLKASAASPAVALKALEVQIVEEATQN

T5: MPDZ_12, O75970
T5 sequence (O75970 1857-1958, limits assumed, looked up): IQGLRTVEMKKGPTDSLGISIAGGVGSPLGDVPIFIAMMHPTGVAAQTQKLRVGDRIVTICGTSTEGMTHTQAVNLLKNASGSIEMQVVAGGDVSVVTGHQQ

T6: NHERF3_4, Q5T2W1
T6 sequence (Q5T2W1 373-468, limits assumed, looked up): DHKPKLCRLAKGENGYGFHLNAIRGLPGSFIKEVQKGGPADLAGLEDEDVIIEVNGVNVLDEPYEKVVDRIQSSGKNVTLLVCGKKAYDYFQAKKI

T7: PDZD2_2, O15018
T7 sequence (O15018 329-429, limits assumed, looked up): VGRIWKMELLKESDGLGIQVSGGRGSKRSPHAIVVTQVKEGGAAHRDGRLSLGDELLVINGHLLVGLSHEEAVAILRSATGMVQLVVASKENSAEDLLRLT

T8: RAPGEF6, Q8TEU7
T8 sequence (Q8TEU7 525-625, limits assumed, looked up): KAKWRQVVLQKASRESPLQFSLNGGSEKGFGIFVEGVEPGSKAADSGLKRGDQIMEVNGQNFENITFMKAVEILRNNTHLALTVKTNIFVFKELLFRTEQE

T9: SHANK1, Q9Y566
T9 sequence (Q9Y566 658-767, limits assumed, looked up): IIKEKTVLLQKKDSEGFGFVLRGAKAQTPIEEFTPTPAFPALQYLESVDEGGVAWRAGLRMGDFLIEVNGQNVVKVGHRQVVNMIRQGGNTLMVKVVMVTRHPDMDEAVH


Tests used:
Test in all cases: holdup assay
Design in all cases: key: below the threshold = too weak to quantify, mostly under pKd 3.1 to 4
Details in all cases: plain residues with an end cap or a label only (N-terminal biotin on a linker: ado-ado)
APBA1_2, Q02410 = biological target: T1, APBA1_2, Q02410
CARD11, Q9BXL7 = biological target: T2, CARD11, Q9BXL7
DLG4_3, P78352 = biological target: DLG4_3, P78352
DLG5_1, Q8TDM6 = biological target: DLG5_1, Q8TDM6
GRASP, Q7Z6J2 = biological target: GRASP, Q7Z6J2
GRIP2_4, Q9C0E4 = biological target: GRIP2_4, Q9C0E4
GRIP2_6, Q9C0E4 = biological target: GRIP2_6, Q9C0E4
HTRA2, O43464 = biological target: HTRA2, O43464
IL16_4, Q14005 = biological target: IL16_4, Q14005
Inadl_3, Q8NI35 = biological target: Inadl_3, Q8NI35
Inadl_8, Q8NI35 = biological target: Inadl_8, Q8NI35
Inadl_9, Q8NI35 = biological target: Inadl_9, Q8NI35
LIMK2, P53671 = biological target: LIMK2, P53671
LIN7A, O14910 = biological target: T3, LIN7A, O14910
LNX1_3, Q8TBB1 = biological target: LNX1_3, Q8TBB1
LNX2_3, Q8N448 = biological target: T4, LNX2_3, Q8N448
MAGI1_1, Q96QZ7 = biological target: MAGI1_1, Q96QZ7
MAGI2_2, Q86UL8 = biological target: MAGI2_2, Q86UL8
MPDZ_12, O75970 = biological target: T5, MPDZ_12, O75970
NHERF2_2, Q15599 = biological target: NHERF2_2, Q15599
NHERF3_4, Q5T2W1 = biological target: T6, NHERF3_4, Q5T2W1
NHERF4_1, Q86UT5-2 = biological target: NHERF4_1, Q86UT5-2
PARD3_3, Q8TEW0 = biological target: PARD3_3, Q8TEW0
PDZD2_2, O15018 = biological target: T7, PDZD2_2, O15018
RAPGEF6, Q8TEU7 = biological target: T8, RAPGEF6, Q8TEU7
SCRIB_1, Q14160 = biological target: SCRIB_1, Q14160
SHANK1, Q9Y566 = biological target: T9, SHANK1, Q9Y566
SNX27, Q96L92 = biological target: SNX27, Q96L92
TJP2_1, Q9UDY2 = biological target: TJP2_1, Q9UDY2
Chain of TJP2_1, Q9UDY2 (Q9UDY2 24-128): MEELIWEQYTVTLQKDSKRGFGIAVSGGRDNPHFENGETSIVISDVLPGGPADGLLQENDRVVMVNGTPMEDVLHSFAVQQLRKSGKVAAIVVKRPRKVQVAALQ

Chain of MAGI2_2, Q86UL8 (Q86UL8 410-522): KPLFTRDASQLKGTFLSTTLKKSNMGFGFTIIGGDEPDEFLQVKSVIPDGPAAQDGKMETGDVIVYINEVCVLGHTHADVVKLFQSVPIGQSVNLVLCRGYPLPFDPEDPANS
Chain of GRASP, Q7Z6J2 (Q7Z6J2 96-193): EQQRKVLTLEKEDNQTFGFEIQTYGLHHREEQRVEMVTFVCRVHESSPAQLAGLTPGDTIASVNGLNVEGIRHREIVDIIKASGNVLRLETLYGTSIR
Chain of NHERF4_1, Q86UT5-2 (Q86UT5 other isoform, or with tags, fused parts or gaps): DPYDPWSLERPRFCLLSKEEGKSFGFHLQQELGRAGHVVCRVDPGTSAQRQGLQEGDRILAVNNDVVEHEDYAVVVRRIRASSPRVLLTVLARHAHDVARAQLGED
Chain of GRIP2_6, Q9C0E4 (Q9C0E4 648-740): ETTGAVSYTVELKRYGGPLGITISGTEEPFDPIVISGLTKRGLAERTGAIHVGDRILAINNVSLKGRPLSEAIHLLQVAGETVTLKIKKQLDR
Chain of Inadl_9, Q8NI35 (Q8NI35 1530-1615): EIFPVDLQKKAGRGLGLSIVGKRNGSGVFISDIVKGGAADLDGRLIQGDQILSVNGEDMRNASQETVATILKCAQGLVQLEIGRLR
Chain of Inadl_3, Q8NI35 (Q8NI35 359-469): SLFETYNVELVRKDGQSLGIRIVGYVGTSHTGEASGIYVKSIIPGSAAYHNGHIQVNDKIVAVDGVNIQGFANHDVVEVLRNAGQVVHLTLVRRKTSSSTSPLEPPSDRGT
Chain of IL16_4, Q14005 (Q14005 1229-1329): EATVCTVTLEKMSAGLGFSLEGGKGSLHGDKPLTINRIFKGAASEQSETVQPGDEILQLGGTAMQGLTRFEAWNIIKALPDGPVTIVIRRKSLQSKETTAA
Chain of LNX1_3, Q8TBB1 (Q8TBB1 500-596): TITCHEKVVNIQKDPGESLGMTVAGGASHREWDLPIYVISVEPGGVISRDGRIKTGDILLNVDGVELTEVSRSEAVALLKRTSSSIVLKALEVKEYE
Chain of SCRIB_1, Q14160 (Q14160 718-814): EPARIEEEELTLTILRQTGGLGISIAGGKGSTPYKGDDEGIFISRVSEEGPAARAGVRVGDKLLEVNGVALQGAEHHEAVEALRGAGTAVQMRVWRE
Chain of Inadl_8, Q8NI35 (Q8NI35 1425-1530): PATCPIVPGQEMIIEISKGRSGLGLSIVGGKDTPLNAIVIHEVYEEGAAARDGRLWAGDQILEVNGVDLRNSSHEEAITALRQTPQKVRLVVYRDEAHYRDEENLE
Chain of DLG4_3, P78352 (P78352 306-403): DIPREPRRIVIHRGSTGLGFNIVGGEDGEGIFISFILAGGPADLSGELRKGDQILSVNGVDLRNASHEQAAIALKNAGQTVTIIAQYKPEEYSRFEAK
Chain of HTRA2, O43464 (O43464 355-458): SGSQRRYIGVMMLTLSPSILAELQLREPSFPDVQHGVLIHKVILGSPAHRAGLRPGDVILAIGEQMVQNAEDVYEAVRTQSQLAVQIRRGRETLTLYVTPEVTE
Chain of NHERF2_2, Q15599 (Q15599 142-238): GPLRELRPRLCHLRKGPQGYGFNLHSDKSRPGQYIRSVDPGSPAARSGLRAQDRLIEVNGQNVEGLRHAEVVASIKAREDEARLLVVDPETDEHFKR
Chain of DLG5_1, Q8TDM6 (Q8TDM6 617-713): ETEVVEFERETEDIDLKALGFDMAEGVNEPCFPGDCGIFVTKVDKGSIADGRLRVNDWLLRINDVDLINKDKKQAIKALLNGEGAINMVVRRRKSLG
Chain of MAGI1_1, Q96QZ7 (Q96QZ7 1-106): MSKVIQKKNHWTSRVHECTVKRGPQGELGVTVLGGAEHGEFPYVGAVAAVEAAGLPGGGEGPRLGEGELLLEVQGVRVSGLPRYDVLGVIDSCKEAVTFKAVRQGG
Chain of GRIP2_4, Q9C0E4 (Q9C0E4 446-548): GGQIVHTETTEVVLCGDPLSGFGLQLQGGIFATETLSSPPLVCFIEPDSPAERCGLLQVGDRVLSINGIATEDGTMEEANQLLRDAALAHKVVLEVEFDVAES
Chain of LIMK2, P53671 (P53671 143-248): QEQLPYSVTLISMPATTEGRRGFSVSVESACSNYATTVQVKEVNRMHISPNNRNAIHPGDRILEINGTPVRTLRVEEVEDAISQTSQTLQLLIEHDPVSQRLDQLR
Chain of PARD3_3, Q8TEW0 (Q8TEW0 582-685): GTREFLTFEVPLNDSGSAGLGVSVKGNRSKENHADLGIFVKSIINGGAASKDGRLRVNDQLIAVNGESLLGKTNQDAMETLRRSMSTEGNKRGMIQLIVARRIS

pKd (APBA1_2, Q02410)	pKd (CARD11, Q9BXL7)	pKd (DLG4_3, P78352)	pKd (DLG5_1, Q8TDM6)	pKd (GRASP, Q7Z6J2)	pKd (GRIP2_4, Q9C0E4)	pKd (GRIP2_6, Q9C0E4)	pKd (HTRA2, O43464)	pKd (IL16_4, Q14005)	pKd (Inadl_3, Q8NI35)	pKd (Inadl_8, Q8NI35)	pKd (Inadl_9, Q8NI35)	pKd (LIMK2, P53671)	pKd (LIN7A, O14910)	pKd (LNX1_3, Q8TBB1)	pKd (LNX2_3, Q8N448)	pKd (MAGI1_1, Q96QZ7)	pKd (MAGI2_2, Q86UL8)	pKd (MPDZ_12, O75970)	pKd (NHERF2_2, Q15599)	Binder	also measured
3.53	below the threshold	3.55	below the threshold	4.6	below the threshold	below the threshold	below the threshold	3.69	below the threshold	below the threshold	below the threshold	below the threshold	below the threshold	below the threshold	below the threshold	below the threshold	below the threshold	below the threshold	3.62	TMQMSLKDLL [GLA, P06280]	pKd (NHERF3_4, Q5T2W1): below the threshold; pKd (NHERF4_1, Q86UT5-2): 3.99; pKd (PARD3_3, Q8TEW0): 3.54; pKd (PDZD2_2, O15018): below the threshold; pKd (RAPGEF6, Q8TEU7): 3.69; pKd (SCRIB_1, Q14160): below the threshold; pKd (SHANK1, Q9Y566): 3.59; pKd (SNX27, Q96L92): below the threshold; pKd (TJP2_1, Q9UDY2): below the threshold
below the threshold	below the threshold	below the threshold	below the threshold	below the threshold	below the threshold	below the threshold	below the threshold	below the threshold	below the threshold	below the threshold	below the threshold	below the threshold	below the threshold	below the threshold	below the threshold	below the threshold	below the threshold	below the threshold	below the threshold	RALRASESGI [ADGRE5, P48960]	pKd (NHERF3_4, Q5T2W1): below the threshold; pKd (NHERF4_1, Q86UT5-2): below the threshold; pKd (PARD3_3, Q8TEW0): below the threshold; pKd (PDZD2_2, O15018): below the threshold; pKd (RAPGEF6, Q8TEU7): below the threshold; pKd (SCRIB_1, Q14160): below the threshold; pKd (SHANK1, Q9Y566): below the threshold; pKd (SNX27, Q96L92): below the threshold; pKd (TJP2_1, Q9UDY2): below the threshold
3.52	below the threshold	below the threshold	below the threshold	3.62	below the threshold	below the threshold	below the threshold	below the threshold	3.92	below the threshold	below the threshold	below the threshold	below the threshold	below the threshold	below the threshold	below the threshold	below the threshold	below the threshold	4.03	GCQGETEDVL [PTH2R, P49190]	pKd (NHERF3_4, Q5T2W1): below the threshold; pKd (NHERF4_1, Q86UT5-2): 3.85; pKd (PARD3_3, Q8TEW0): 4.32; pKd (PDZD2_2, O15018): below the threshold; pKd (RAPGEF6, Q8TEU7): below the threshold; pKd (SCRIB_1, Q14160): below the threshold; pKd (SHANK1, Q9Y566): below the threshold; pKd (SNX27, Q96L92): 4.52; pKd (TJP2_1, Q9UDY2): below the threshold
4.75	below the threshold	below the threshold	below the threshold	4.65	below the threshold	below the threshold	4.18	3.67	4.65	4.19	4.06	below the threshold	below the threshold	3.53	below the threshold	below the threshold	4.11	below the threshold	3.83	PMESGICTIV [TTC24, A2A3L6]	pKd (NHERF3_4, Q5T2W1): below the threshold; pKd (NHERF4_1, Q86UT5-2): 4.2; pKd (PARD3_3, Q8TEW0): 4.29; pKd (PDZD2_2, O15018): 4.68; pKd (RAPGEF6, Q8TEU7): below the threshold; pKd (SCRIB_1, Q14160): 3.92; pKd (SHANK1, Q9Y566): 4.04; pKd (SNX27, Q96L92): 4.63; pKd (TJP2_1, Q9UDY2): 3.81
below the threshold	below the threshold	below the threshold	below the threshold	below the threshold	below the threshold	below the threshold	below the threshold	below the threshold	3.47	below the threshold	below the threshold	below the threshold	below the threshold	below the threshold	below the threshold	below the threshold	below the threshold	below the threshold	below the threshold	SRPRPDDLEI [GJA1, P17302]	pKd (NHERF3_4, Q5T2W1): below the threshold; pKd (NHERF4_1, Q86UT5-2): below the threshold; pKd (PARD3_3, Q8TEW0): 3.74; pKd (PDZD2_2, O15018): below the threshold; pKd (RAPGEF6, Q8TEU7): below the threshold; pKd (SCRIB_1, Q14160): below the threshold; pKd (SHANK1, Q9Y566): below the threshold; pKd (SNX27, Q96L92): below the threshold; pKd (TJP2_1, Q9UDY2): below the threshold
